The results in this text go back to US20030003563, “Method of using a crystal of the N-terminal domain of a signal transducer and activator of transcription” (published 2003).

The target in series [1] is STAT-1alpha W37A (Tyr-phosphorylated) (Homo sapiens, UniProt P42224 P42224:2-750, W37A). The experiment in a line: EMSA; used to titrate active protein. As to conditions: tags: C-terminal 6xHis; baculovirus insect cells; chain copies: 2 (dimer; stated). From the text:
(§1) Gel shift experiments and determination of tetramer stability were done as described [Vinkemeier et al., EMBO J. 15:5616 (1996)] with an oligonucleotide containing two copies of the STAT recognition element from the c-fos gene [Wagner et al., EMBO J. 9:4477 (1990)] spaced by 10 base pairs (5′-[…]-3′). Both protein preparations (Tyr-phosphorylated wild type STAT-1α and W37A mutant) were titrated in gel shift experiments with an oligonucleotide containing a single M67 site (5′-[…]-3′) [Wagner et al., EMBO J. 9:4477 (1990)] to assure similar loading of active protein. […] The time necessary to reach equilibrium was assessed by EMSA [(Stone et al., in Jost, J. P. & Saluz, H. P. (eds.) A Laboratory Guide to In Vitro Studies of Protein-DNA Interactions BioMethods, vol.5:163-195 (1991)]. For all DNA fragments tested, equilibrium turned out to be fully established at the earliest timepoint that can be determined by this technique (30 sec). Therefore incubation periods of 5-15 minutes were chosen. Reaction products were loaded onto a 4% polyacrylamide gel (1.5 mm thick) containing 0.25× Tris-borate-EDTA which had been pre-run at 20V/cm for 2 hours at 4° C. Electrophoresis was continued for 60 minutes at 4° C. Gels were dried and exposed to X-ray film and quantitated by a Molecular Dynamics Phospholmager.
(Mobility shift assays separate free from complexed probe on a gel.)

The target in series [2] is STAT-1alpha (Tyr-phosphorylated, wild type) (Homo sapiens, UniProt P42224 P42224:2-750). The experiment in a line: EMSA; used to titrate active protein. As to conditions: tags: in vitro Tyr-phosphorylated with EGF-receptor kinase; chain copies: 4 (two dimers on tandem site; stated).
STAT-1alpha (Tyr-phosphorylated, wild type), sequence (P42224 2-750, one chain of several): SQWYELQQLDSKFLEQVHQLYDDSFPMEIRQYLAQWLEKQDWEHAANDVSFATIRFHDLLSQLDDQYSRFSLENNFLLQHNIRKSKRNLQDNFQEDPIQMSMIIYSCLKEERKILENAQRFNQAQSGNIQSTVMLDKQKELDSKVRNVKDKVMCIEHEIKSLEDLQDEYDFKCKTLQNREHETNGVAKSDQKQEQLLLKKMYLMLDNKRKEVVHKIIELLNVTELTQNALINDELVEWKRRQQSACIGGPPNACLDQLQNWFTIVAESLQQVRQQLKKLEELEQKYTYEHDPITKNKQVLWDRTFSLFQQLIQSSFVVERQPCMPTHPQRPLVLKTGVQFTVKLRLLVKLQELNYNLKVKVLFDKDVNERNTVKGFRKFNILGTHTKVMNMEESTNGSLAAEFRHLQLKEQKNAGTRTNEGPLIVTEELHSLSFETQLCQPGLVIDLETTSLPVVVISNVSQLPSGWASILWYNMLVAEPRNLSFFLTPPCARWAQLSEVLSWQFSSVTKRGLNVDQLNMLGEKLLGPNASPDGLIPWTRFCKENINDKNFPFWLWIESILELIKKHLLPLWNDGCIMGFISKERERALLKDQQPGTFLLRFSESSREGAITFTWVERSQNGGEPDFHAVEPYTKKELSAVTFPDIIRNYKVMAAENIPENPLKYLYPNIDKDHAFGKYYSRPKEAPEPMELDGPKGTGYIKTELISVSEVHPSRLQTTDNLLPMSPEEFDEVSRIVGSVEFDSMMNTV
From the text: as §1

Series [3] has as its target STAT-1alpha wild type (transfected, U3A cells) (Homo sapiens, UniProt P42224 P42224:2-750). The experiment in a line: cell_activity; IFN-gamma 5 ng/ml, 10 h, luciferase in U3A cells. As to conditions: tags: pcDNA3 expression. Here is the method:
FIG. 4B show the effect of STAT-1 W37A mutation on interferon-γ (IFN-γ) stimulated gene activation in vivo. U3A cells that are lacking STAT-1 [Miller et al., EMBO J. 12:4221 (1993)] were transfected with expression clones containing either wild type or mutant STAT-1 (see Methods of the EXAMPLE, below) along with a luciferase reporter containing a tandem STAT binding site as an enhancer. After stimulation with IFN-γ for 10 hours, luciferase expression was determined spectroscopically (represented as bars). Cells transfected with the wild type protein show an about 2-fold increase in luciferase expression. […] Each bar represents ten individual parallel experiments. Error bars denote standard deviation from the mean.
Transient transfections were performed on six well plates with 50% confluent U3A cells using the calcium phosphate method as instructed by the manufacturer (Stratagene) with the following modifications. Transfection reactions contained per well 4.5 μg of either wild type STAT-1α or the W37A mutant in plasmid pcDNA3 (Invitrogen), 4 μg luciferase reporter plasmid pLuc, and 0.4 μg β-galactosidase reporter plasmid (Stratagene).
The luciferase reporter contained in its BamH1 site as an enhancer element two tandemly arranged “weak” STAT-1 binding sites (5′-[…]-3′, binding sites underlined) from the human c-fos promoter. […]

STAT-1alpha wild type (transfected, U3A cells), sequence (P42224 2-750, one chain of several): as above
STAT-1alpha W37A (Tyr-phosphorylated), sequence (P42224 2-750 W37A, one chain of several): as the sequence (P42224 2-750, one chain of several) above, with W36A counted along it

B1: single M67 site (dsDNA)
DNA 1: GCCGATTTCCCGTAAATCAT
DNA 2: ATGATTTACGGGAAATCGGC
On to B1, for which the binding result in series [1] and in series [2] was “binds” each time.

B2: luciferase reporter enhancer with two weak STAT-1 sites (dsDNA)
DNA 1: GATCAGTTCCCGTCAATCATGATCCAGTTCCCGTCAATGATCCCCGGGATC
DNA 2: GATCCCGGGGATCATTGACGGGAACTGGATCATGATTGACGGGAACTGATC
Consider B2, for which the activity in series [3] is approximately 2 fold induction.
